Measurements taken from patent US20200317768A1 (published 2020).
Numbering of substitutions follows the chain as printed.

T1: cynomolgus monkey FcγRIIb extracellular domain, His-tagged (cynomolgus monkey)
T1 construct: also called cyno FcγRIIb; cynoFcγRIIb
T1 chain: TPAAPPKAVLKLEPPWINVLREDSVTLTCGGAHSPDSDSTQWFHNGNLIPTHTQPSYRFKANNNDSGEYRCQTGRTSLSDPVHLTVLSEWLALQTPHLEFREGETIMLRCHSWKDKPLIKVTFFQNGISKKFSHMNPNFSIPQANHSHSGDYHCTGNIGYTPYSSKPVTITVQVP

T2: human FcγRIIb extracellular domain, His-tagged (human, UniProt P31994 43-217)
T2 construct: also called FcgRIIb (human)
T2 sequence: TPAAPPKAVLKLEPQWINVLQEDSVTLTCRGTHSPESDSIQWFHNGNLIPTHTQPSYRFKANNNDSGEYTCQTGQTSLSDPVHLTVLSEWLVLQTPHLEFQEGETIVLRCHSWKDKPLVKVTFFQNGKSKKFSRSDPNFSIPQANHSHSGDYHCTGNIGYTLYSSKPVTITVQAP

T3: human FcγRIIaH extracellular domain, His-tagged (human, UniProt P12318 34-217)
T3 construct: also called human FcγRIIa (type H); FcgRIIaH
T3 sequence: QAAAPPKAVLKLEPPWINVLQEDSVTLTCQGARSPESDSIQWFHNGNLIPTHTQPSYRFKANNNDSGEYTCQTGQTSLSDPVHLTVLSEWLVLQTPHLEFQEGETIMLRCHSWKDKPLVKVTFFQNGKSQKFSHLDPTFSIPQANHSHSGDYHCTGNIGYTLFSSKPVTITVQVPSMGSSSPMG

T4: cynomolgus monkey FcγRIIa2 extracellular domain, His-tagged (cynomolgus monkey)
T4 construct: also called cyno FcγRIIa2; cynoFcgRIIa2
T4 chain: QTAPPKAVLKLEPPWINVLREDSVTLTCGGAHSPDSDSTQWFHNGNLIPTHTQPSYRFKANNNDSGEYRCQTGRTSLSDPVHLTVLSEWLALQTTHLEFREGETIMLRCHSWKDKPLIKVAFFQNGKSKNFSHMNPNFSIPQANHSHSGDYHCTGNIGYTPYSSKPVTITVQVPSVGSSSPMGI

T5: human FcγRIIaR extracellular domain, His-tagged (human, UniProt P12318 34-217)
T5 construct: also called human FcγRIIa (type R); FcgRIIaR
T5 chain: T3 sequence with H134R

T6: cynomolgus monkey FcγRIIa3 extracellular domain, His-tagged (cynomolgus monkey)
T6 construct: also called cyno FcγRIIa3; cynoFcgRIIa3
T6 chain: T4 chain with K127I, N130K, H133P, Q142R

T7: cynomolgus monkey FcγRIIIaS extracellular domain, His-tagged (cynomolgus monkey, UniProt Q8SPW2 21-206 at identity 1.00))
T7 construct: also called cyno FcγRIIIaS; cynoFcγRIIIaS
T7 chain: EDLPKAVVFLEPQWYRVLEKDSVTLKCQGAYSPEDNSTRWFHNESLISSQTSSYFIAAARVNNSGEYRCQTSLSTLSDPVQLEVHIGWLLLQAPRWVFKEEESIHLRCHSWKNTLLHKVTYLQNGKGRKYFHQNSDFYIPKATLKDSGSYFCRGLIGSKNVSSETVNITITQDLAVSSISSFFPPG

T8: cynomolgus monkey FcγRIIa1 extracellular domain, His-tagged (cynomolgus monkey)
T8 construct: also called cyno FcγRIIa1; cynoFcgRIIa1
T8 chain: T4 chain with T95P, A121T, K127I, S128A, N130K, N135D, Q142R

B1: M103205H795-MY001/M103202L889-SK1 (antibody, human IgG1, kappa)
heavy: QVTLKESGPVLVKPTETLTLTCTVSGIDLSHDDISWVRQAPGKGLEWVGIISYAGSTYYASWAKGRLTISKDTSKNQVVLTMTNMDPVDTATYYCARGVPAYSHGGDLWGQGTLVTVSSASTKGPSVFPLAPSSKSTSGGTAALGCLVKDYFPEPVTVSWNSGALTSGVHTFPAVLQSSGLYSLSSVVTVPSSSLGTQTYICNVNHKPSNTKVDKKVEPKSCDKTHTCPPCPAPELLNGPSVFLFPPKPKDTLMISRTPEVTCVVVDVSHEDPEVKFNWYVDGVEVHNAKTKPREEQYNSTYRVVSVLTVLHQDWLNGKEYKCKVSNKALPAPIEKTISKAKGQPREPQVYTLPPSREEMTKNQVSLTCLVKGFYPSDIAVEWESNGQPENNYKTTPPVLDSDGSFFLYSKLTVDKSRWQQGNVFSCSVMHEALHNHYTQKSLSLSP
light: DIVMTQSPATLSLSPGERATLSCTSSQSVYHANWLSWFQQKPGQPPKLLIYWASTLAYGVPSRFSGSGSGTDFTLTISSLQPEDAATYYCAGGYGGGRYAFGQGTKVEIKRTVAAPSVFIFPPSDEQLKSGTASVVCLLNNFYPREAKVQWKVDNALQSGNSQESVTEQDSKDSTYSLSSTLTLSKADYEKHKVYACEVTHQGLSSPVTKSFNRGEC
notes: Substitution put into M103205H795-SG1
B2: M103205H795-MY011/M103202L889-SK1 (antibody, human IgG1, kappa)
heavy: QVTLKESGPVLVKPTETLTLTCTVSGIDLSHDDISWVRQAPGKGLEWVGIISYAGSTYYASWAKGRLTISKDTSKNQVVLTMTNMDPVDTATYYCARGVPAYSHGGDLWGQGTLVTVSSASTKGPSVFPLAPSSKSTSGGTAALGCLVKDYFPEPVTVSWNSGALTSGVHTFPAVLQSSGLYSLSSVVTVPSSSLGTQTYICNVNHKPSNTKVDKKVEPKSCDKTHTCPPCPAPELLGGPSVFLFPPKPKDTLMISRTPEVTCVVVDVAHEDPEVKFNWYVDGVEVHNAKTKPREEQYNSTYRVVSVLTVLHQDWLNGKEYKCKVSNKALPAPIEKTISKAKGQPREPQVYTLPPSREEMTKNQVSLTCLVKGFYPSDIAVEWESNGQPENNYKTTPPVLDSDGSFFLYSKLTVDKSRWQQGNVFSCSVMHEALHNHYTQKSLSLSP
light: B1 light
notes: Put into M103205H795-SG1
B3: M103205H795-MY042/M103202L889-SK1 (antibody, human IgG1, kappa)
heavy: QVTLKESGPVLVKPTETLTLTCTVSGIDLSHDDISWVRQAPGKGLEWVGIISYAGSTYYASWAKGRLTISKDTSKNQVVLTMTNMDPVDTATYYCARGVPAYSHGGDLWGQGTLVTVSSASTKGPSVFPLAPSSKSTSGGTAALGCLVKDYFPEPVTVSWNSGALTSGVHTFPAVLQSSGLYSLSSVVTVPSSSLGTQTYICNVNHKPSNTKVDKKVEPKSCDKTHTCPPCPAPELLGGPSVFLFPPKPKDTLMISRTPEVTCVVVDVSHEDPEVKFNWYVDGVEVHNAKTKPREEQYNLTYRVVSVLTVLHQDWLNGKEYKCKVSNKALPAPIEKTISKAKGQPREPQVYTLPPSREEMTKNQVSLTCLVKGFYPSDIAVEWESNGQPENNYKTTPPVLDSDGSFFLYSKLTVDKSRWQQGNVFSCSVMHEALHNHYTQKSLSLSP
light: B1 light
notes: as for B1
B4: M103205H795-MY074/M103202L889-SK1 (antibody, human IgG1, kappa)
heavy: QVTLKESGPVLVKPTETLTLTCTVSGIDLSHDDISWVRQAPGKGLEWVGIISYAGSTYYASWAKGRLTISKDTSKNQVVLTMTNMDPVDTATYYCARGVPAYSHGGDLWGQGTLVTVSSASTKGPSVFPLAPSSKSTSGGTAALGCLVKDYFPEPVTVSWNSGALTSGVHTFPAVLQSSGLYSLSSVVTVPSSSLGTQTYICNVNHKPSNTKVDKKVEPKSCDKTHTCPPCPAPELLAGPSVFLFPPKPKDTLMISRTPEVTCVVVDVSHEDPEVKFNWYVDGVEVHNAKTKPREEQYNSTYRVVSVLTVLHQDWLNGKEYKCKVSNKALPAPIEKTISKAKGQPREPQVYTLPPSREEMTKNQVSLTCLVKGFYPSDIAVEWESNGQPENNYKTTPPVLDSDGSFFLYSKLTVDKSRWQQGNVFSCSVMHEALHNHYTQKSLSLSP
light: B1 light
notes: as for B1

Molecular target: T1, cynomolgus monkey FcγRIIb extracellular …
Test: SPR, antibody captured, FcgR analyte
Protocol: (§1) The kinetic analysis of interactions between these antibodies and FcγR was carried out using BIACORE® T200 or BIACORE® 4000 (GE Healthcare). HBS-EP+ (GE Healthcare) was used as the running buffer, and the measurement temperature was set to 25° C. A chip produced by immobilizing Protein A. Protein A/G or mouse anti-human IgG kappa light chain (BD Biosciences) onto a Series S Sensor Chip CM4 or CM5 (GE Healthcare) by the amine-coupling method was used. […] After the measurement, the antibody captured on the chip was washed off by allowing reaction with 10 mM glycine-HCl, pH1.5 and 25 mM NaOH so that the chip was regenerated and used repeatedly. The sensorgrams obtained as measurement results were analyzed by the 1:1 Langmuir binding model using the BIACORE® Evaluation Software to calculate the binding rate constant ka (L/mol/s) and dissociation rate constant kd (l/s), and the dissociation constant KD (mol/L) was calculated from these values. […] Regarding such interactions, KD values were calculated using the following 1:1 binding model described in BIACORE® T100 Software Handbook BR1006-48 Edition AE.
(§2) The behavior of interacting molecules according to the 1:1 binding model on BIACORE® can be described by Equation 1: Req=C·R max/(KD+C)+RI, wherein, Req is a plot of steady-state binding levels to analyte concentration. C is concentration, RI is bulk refractive index contribution in the sample, and Rmax is analyte binding capacity of the surface. When this equation is rearranged, KD can be expressed as Equation 2: KD=C·Rmax/(Req−RI)−C. KD can be calculated by substituting the values of Rmax, RI, and C into Equation 1 or Equation 2. From the current measurement conditions, RI=0, C=2 μmol/L can be used.

Row | Kd [µM] | Binder
1 | 1.8 | B1
2 | 1 | B2
3 | 1.6 | B3
4 | 1.1 | B4

molecular target: T2, human FcγRIIb extracellular domain, …; test: SPR, antibody captured, FcgR analyte
Protocol: as §1, §2

Row | Kd [µM] | Binder
5 | 7.7 | B1
6 | 0.66 | B2
7 | 4 | B3
8 | 8.6 | B4

molecular target: T3, human FcγRIIaH extracellular domain, …; test: SPR, antibody captured, FcgR analyte
Protocol: as §1, §2

Row | Kd [µM] | Binder
9 | 3.2 | B1
10 | 0.49 | B2
11 | 1 | B3
12 | 0.092 | B4

Molecular target: T4, cynomolgus monkey FcγRIIa2 …
Test: SPR, antibody captured, FcgR analyte
Protocol: as §1, §2

Row | Kd [µM] | Binder
13 | 3.5 | B1
14 | 2.8 | B2
15 | 3.1 | B3

Molecular target: T5, human FcγRIIaR extracellular domain, …
Test: SPR, antibody captured, FcgR analyte
Protocol: as §1, §2

Row | Kd [µM] | Binder
16 | 8.2 | B1
17 | 0.17 | B2
18 | 0.98 | B3

Molecular target: T6, cynomolgus monkey FcγRIIa3 …
Test: SPR, antibody captured, FcgR analyte
Protocol: as §1, §2

Row | Kd [µM] | Binder
19 | 15 | B1
20 | 9.9 | B2
21 | 8 | B3
22 | 6.2 | B4

Molecular target: T7, cynomolgus monkey FcγRIIIaS …
Test: SPR, antibody captured, FcgR analyte
Protocol: as §1, §2

Row | Kd [µM] | Binder
23 | 1.2 | B1
24 | 0.15 | B2
25 | 0.44 | B3
26 | 0.27 | B4

Molecular target: T8, cynomolgus monkey FcγRIIa1 …
Test: SPR, antibody captured, FcgR analyte
Protocol: as §1, §2

Row | Kd [µM] | Binder
27 | 2.9 | B1
28 | 2 | B4

molecular target: T9, human FcγRIIIaV extracellular domain, His-tagged (human, UniProt P08637 17-208); test: SPR, antibody captured, FcgR analyte
T9 construct: also called FcgRIIIaV
T9 sequence (P08637 17-208 F176V): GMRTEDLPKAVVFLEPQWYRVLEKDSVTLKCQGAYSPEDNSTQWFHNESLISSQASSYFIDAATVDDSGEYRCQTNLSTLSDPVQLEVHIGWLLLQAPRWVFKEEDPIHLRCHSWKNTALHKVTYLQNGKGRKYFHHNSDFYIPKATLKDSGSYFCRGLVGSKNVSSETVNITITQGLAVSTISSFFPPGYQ
Protocol: as §1, §2

Row | Kd [µM] | Binder
29 | 0.34 | B2
30 | 0.53 | B3
31 | 0.56 | B4

Molecular target: T1, cynomolgus monkey FcγRIIb extracellular …
Test: SPR; KD of SG1 / KD of variant;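 further: relative to parent M103205H795-SG1 carrying the SG1 human heavy chain constant region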

Row | KD fold (SG1 = 1) [fold] | Binder
32 | 1 | B1
33 | 1.8 | B2
34 | 1.1 | B3
35 | 1.6 | B4

molecular target: T2, human FcγRIIb extracellular domain, …; test: SPR; KD of SG1 / KD of variant;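 further: relative to parent M103205H795-SG1 carrying the SG1 human heavy chain constant region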

Row | KD fold (SG1 = 1) [fold] | Binder
36 | 0.6 | B1
37 | 7 | B2
38 | 1.2 | B3
39 | 1.3 | B4

molecular target: T3, human FcγRIIaH extracellular domain, …; test: SPR; KD of SG1 / KD of variant;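 further: relative to parent M103205H795-SG1 carrying the SG1 human heavy chain constant region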

Row | KD fold (SG1 = 1) [fold] | Binder
40 | 0.2 | B1
41 | 1.4 | B2
42 | 0.7 | B3
43 | 7.5 | B4

Molecular target: T4, cynomolgus monkey FcγRIIa2 …
Test: SPR; KD of SG1 / KD of variant;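 further: relative to parent M103205H795-SG1 carrying the SG1 human heavy chain constant region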

Row | KD fold (SG1 = 1) [fold] | Binder
44 | 1.4 | B1
45 | 1.8 | B2
46 | 1.6 | B3
47 | 2.2 | B4

Molecular target: T5, human FcγRIIaR extracellular domain, …
Test: SPR; KD of SG1 / KD of variant

Row | KD fold (SG1 = 1) [fold] | Binder
48 | 0.1 | B1
49 | 6.5 | B2
50 | 1.1 | B3
51 | 5.2 | B4

Molecular target: T6, cynomolgus monkey FcγRIIa3 …
Test: SPR; KD of SG1 / KD of variant

Row | KD fold (SG1 = 1) [fold] | Binder
52 | 1.2 | B1
53 | 1.7 | B2
54 | 2.1 | B3
55 | 2.7 | B4

Molecular target: T7, cynomolgus monkey FcγRIIIaS …
Test: SPR; KD of SG1 / KD of variant

Row | KD fold (SG1 = 1) [fold] | Binder
56 | 0.03 | B1
57 | 2.4 | B2
58 | 0.82 | B3
59 | 1.33 | B4

Molecular target: T8, cynomolgus monkey FcγRIIa1 …
Test: SPR; KD of SG1 / KD of variant

Row | KD fold (SG1 = 1) [fold] | Binder
60 | 1.1 | B1
61 | 1.4 | B2
62 | 6.3 | B3
63 | 1.6 | B4

molecular target: T9, human FcγRIIIaV extracellular domain, …; test: SPR; KD of SG1 / KD of variant

Row | KD fold (SG1 = 1) [fold] | Binder
64 | 0.84 | B1
65 | 2.38 | B2
66 | 1.53 | B3
67 | 1.45 | B4
